In patent US20150322414A1 (UNITED KINGDOM RESEARCH AND INNOVATION, published 2015):

Key:
[1] = target: Wild-type human Tie2 ectodomain (residues 1-442) surface expression construct on DT40 cells (human) (UniProt P09619); assay: flow cytometry, ligand titrated on DT40 cells displaying wild-type Tie2 ectodomain; apparent Kd
Angiopoietin-2 [2] = target: T1, Angiopoietin-2 (human, UniProt O15123 19-496, limits assumed); assay: SPR (ForteBio Octet), ectodomain-Fc immobilised; wild-type ectodomain
T1 construct: also called Ang2; biotinylated Ang2
T1 sequence (looked up): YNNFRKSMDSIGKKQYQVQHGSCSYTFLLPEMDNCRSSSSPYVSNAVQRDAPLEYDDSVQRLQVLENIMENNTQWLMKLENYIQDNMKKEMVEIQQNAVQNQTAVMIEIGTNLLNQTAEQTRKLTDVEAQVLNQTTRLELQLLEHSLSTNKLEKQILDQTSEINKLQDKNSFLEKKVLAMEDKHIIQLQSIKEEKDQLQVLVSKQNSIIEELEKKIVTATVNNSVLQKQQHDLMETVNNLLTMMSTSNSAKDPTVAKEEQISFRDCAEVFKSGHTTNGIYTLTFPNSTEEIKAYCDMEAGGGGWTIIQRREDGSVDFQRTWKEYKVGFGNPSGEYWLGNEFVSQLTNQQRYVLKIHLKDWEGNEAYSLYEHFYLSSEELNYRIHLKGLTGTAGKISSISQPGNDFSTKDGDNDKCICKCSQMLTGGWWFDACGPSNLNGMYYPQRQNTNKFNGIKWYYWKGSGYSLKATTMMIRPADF
Protocol: (§1) Surface plasmon resonance was performed using a ForteBio Octet instrument (Pall Life Sciences). Fusion proteins were immobilised at 5 μg/ml on sensors and kinetic binding assays perfoinied as detailed by the manufacturer.

Angiopoietin-1 [3] = target: T2, Angiopoietin-1 (human, UniProt Q15389 20-498, limits assumed); assay: SPR as named in the filing, panel headed 'Binding of Wt and R3 I161G mutant to Ang1', concentrations not given
T2 construct: also called Ang1; His6-tagged Ang1
T2 sequence (looked up): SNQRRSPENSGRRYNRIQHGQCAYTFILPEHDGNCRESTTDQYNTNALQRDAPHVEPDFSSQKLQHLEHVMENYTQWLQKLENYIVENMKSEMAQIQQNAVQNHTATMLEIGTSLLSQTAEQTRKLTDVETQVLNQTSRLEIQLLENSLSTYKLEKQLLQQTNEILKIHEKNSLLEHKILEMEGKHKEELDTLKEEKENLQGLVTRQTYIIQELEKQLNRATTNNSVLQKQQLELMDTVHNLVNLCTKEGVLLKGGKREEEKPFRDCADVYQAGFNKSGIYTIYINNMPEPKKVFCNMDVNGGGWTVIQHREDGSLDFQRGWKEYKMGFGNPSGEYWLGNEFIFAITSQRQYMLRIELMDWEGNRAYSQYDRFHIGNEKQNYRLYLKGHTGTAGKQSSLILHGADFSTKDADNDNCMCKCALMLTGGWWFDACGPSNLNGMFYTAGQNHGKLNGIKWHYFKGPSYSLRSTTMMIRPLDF
Protocol: as §1

Angiopoietin-2 [4] = target: T1, Angiopoietin-2; assay: SPR as named in the filing, panel headed 'Binding of R3 and R3 I161G binding to Ang2', concentrations not given
Protocol: as §1

Angiopoietin-2 [5] = target: T1, Angiopoietin-2; assay: SPR (ForteBio Octet), ectodomain-Fc immobilised; evolved (R3) ectodomain
Protocol: as §1

Angiopoietin-1 [6] = target: T2, Angiopoietin-1; assay: SPR as named in the filing (ForteBio Octet), ectodomain-Fc immobilised on the sensor, Ang1 in solution, concentrations not given
Protocol: as §1

Sequence of Wild-type human Tie2 ectodomain (residues 1-442) surface expression construct on DT40 cells (human) (P09619 514-562 limits assumed, form in doubt): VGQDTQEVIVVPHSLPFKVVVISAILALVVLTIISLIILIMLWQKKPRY

Molecule: Angiopoietin-1 (from UniProt Q15389 20-498) (ligand)
- Kd [1]: 0.7 nM

B1: Wild-type Tie2 ectodomain (1-442)-Fc fusion protein (Fc fusion)
chain (part 1 of 2): AMDLILINSLPLVSDAETSLTCIASGWRPHEPITIGRDFEALMNQHQDPLEVTQDVTREWAKKVVWKREKASKINGAYFCEGRVRGEAIRIRTMKMRQQASFLPATLTMTVDKGDNVNISFKKVLIKEEDAVIYKNGSFIHSVPRHEVPDILEVHLPHAQPQDAGVYSARYIGGNLFTSAFTRLIVRRCEAQKWGPECNHLCTACMNNGVCHEDTGECICPPGFMGRTCEKACELHTFGRTCKERCSGQEGCKSYVFCLPDPYGCSCATGWKGLQCNEACHPGFYGPDCKLRCSCNNGEMCDRFQGCLCSPGWQGLQCEREGIQRMTPKIVDLPDHIEVNSGKFNPICKASGWPLPTNEEMTLVKPDGTVLHPKDFNHTDHFSVAIFTIHRILPPDSGVWVCSVNTVAGMVEKPFNISVK
chain (part 2 of 2): HHHHHH
notes: Secreted from HEK293 cells, about 80 kDa, purified on Ni-NTA; also called wild-type ectodomain; Wt; not shown: human Fc tag
- Kd (Angiopoietin-2 [2]): 4.1 nM

B2: R3 I161G mutant Tie2 ectodomain (Glycine at 161, deleted at R167 and H168) (Fc fusion)
chain: AMDLILINSLPLVSDAETSLTCIASGWRPHEPITIGRDFEALMNQHQDPLEVTQDVTREWAKKVVWKREKASKINGAYFCEGRVRGEAIRIRTMKMRQQASFLPATLTMTVDKGDNVNISFKKVLIKEEDAVIYKNGSGIHSVPEVPDILEVHLPHAQPQDAGVYSARYIGGNLFTSAFTRLIVRRCEAQKWGPECNHLCTACMNNGVCHEDTGECICPPGFMGRTCEKACELHTFGRTCKERCSGQEGCKSYVFCLPDPYGCSCATGWKGLQCNEACHPGFYGPDCKLRCSCNNGEMCDRFQGCLCSPGWQGLQCEREGIQRMTPKIVDLPDHIEVNSGKFNPICKASGWPLPTNEEMTLVKPDGTVLHPKDFNHTDHFSVAIFTIHRILPPDSGVWVCSVNTVAGMVEKPFNISVK
notes: also called new mutant; improved Ang2 ligand-trap; not shown: the other soluble ectodomains carried a human Fc tag and His6
- binding result (Angiopoietin-1 [3]): no binding
- binding result (Angiopoietin-2 [4]): binds

B3: Evolved (R3) Tie2 ectodomain-Fc fusion protein (F161I, ΔR167, ΔH168) (Fc fusion)
chain (part 1 of 2): AMDLILINSLPLVSDAETSLTCIASGWRPHEPITIGRDFEALMNQHQDPLEVTQDVTREWAKKVVWKREKASKINGAYFCEGRVRGEAIRIRTMKMRQQASFLPATLTMTVDKGDNVNISFKKVLIKEEDAVIYKNGSIIHSVPEVPDILEVHLPHAQPQDAGVYSARYIGGNLFTSAFTRLIVRRCEAQKWGPECNHLCTACMNNGVCHEDTGECICPPGFMGRTCEKACELHTFGRTCKERCSGQEGCKSYVFCLPDPYGCSCATGWKGLQCNEACHPGFYGPDCKLRCSCNNGEMCDRFQGCLCSPGWQGLQCEREGIQRMTPKIVDLPDHIEVNSGKFNPICKASGWPLPTNEEMTLVKPDGTVLHPKDFNHTDHFSVAIFTIHRILPPDSGVWVCSVNTVAGMVEKPFNISVK
chain (part 2 of 2): HHHHHH
notes: also called R3 ectodomain; evolved ectodomain; not shown: human Fc tag
- Kd (Angiopoietin-2 [5]): 2.4 nM
- binding result (Angiopoietin-1 [6]): no binding
